Experimental findings from publication doi:10.1101/2024.03.17.585388 are described below.

The experiment deals with NTD_GS_CTD (NP NTD and CTD joined by a 14 residue artificial linker, no tails) (SARS-CoV-2). The experiment in a line: […].

As usually defined, the stoichiometry N is a count of units in the complex or per binding partner. As for “NTD_GS_CTD (NP NTD and CTD joined by a 14 residue artificial linker, no tails) (domain or fragment)”, the stoichiometry N is 2.
